# Reference: patent US20210269533A1 (SAMSUNG ELECTRONICS, published 2021)
# Positions count from the first letter of the chain named.
# B1: huAbF46-H4-A5 (antibody, IgG1, V domains shown)
# VH: EVQLVESGGGLVQPGGSLRLSCAASGFTFTDYYMSWVRQAPGKGLEWLGFIRNKANGYTTEYSASVKGRFTISRDNSKNTLYLQMNSLRAEDTAVYYCARDNWFAYWGQGTLVTVSS
# VL: DIQMTQSPSSLSASVGDRVTITCKSSQSLLASGNQNNYLAWHQQKPGKAPKMLIIWASTRVSGVPSRFSGSGSGTDFTLTISSLQPEDFATYYCQQSYSRPFTFGQGTKVEIKR
# notes: IgG1 constant region with U6-HC7 hinge, human kappa light chain; also called IgG from clone L3-5
# B2: huAbF46-H4-A3 (antibody, IgG1, V domains shown)
# VH: B1 VH
# VL: B1 VL with Q95A, R100H, T103S
# notes: IgG1 constant region with U6-HC7 hinge, human kappa light chain; also called IgG from clone L3-3
# B3: huAbF46-H4-A2 (antibody, IgG1, V domains shown)
# VH: B1 VH
# VL: B1 VL with Q95G, F102L
# notes: IgG1 constant region with U6-HC7 hinge, human kappa light chain; also called IgG from clone L3-2
# B4: huAbF46-H4-A1 (antibody, V domains shown)
# VH: B1 VH
# VL: B1 VL with F102Y
# notes: also called IgG from clone L3-1
# Target: T1, human c-Met protein (human, UniProt P08581 25-932, limits assumed)
# T1 construct: also called c-Met antigen
# Test: SPR (Biacore), antibody immobilized on CM5 chip, human c-Met protein injected at 0.39-100 nM
# Description: (§1) Affinities of the 4 types of antibodies against c-Met antigen prepared in Example 7 were measured by using a Biacore (GE healthcare). About 80 to 110 RU of each antibody was immobilized on a CM5 chip, 9 different concentrations ranging from 0.39 nM to 100 nM of human c-Met protein, as an antigen, were injected at a rate of 30 ul/min to obtain kₒₙ values and koff values as shown in Table 3. Then, KD values were calculated based thereon.
# T1 sequence (P08581 25-932 limits assumed): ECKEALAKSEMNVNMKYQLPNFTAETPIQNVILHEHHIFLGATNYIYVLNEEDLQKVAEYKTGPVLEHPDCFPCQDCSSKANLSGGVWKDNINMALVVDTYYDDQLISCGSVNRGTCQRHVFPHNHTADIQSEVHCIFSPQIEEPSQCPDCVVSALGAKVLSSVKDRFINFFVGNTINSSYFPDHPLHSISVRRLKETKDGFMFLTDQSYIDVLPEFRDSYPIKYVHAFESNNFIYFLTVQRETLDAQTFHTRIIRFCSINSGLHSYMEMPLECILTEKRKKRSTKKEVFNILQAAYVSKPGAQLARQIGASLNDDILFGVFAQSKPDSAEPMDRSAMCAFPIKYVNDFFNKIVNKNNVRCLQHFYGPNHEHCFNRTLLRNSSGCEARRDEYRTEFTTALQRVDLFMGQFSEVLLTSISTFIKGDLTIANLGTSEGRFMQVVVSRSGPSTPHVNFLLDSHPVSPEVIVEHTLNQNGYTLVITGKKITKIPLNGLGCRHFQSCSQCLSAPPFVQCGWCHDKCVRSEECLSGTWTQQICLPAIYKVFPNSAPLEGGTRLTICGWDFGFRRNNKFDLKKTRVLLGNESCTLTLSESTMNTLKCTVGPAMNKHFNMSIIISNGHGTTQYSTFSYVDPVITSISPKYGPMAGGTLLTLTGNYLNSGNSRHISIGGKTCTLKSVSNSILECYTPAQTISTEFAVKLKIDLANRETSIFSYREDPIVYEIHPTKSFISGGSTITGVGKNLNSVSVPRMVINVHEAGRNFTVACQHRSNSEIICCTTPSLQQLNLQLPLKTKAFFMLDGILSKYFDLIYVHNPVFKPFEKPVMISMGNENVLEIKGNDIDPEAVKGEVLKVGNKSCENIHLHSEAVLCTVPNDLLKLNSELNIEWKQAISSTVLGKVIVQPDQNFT
Binder,Kd,koff,kon
B1,0.42 nM,0.00024 s⁻¹,572000 M⁻¹ s⁻¹
B2,0.34 nM,0.000143 s⁻¹,419000 M⁻¹ s⁻¹
B3,0.5 nM,0.000253 s⁻¹,502000 M⁻¹ s⁻¹

# Target: T1, human c-Met protein
# Test: SPR (Biacore), ratio of KD values of Table 3
# Description: as §1
row,Binder,fold improvement of affinity (against huAbF46)
1,B4,37 times
2,B3,5 times

# Target: c-Met on cancer cells (MKN45 gastric cancer cells; NCI-H441 lung cancer cells) (human, UniProt P08581 25-1390)
# Test: cell-based or functional assay
# c-Met on cancer cells (MKN45 gastric cancer cells; NCI-H441 lung cancer cells), sequence (P08581 25-1390): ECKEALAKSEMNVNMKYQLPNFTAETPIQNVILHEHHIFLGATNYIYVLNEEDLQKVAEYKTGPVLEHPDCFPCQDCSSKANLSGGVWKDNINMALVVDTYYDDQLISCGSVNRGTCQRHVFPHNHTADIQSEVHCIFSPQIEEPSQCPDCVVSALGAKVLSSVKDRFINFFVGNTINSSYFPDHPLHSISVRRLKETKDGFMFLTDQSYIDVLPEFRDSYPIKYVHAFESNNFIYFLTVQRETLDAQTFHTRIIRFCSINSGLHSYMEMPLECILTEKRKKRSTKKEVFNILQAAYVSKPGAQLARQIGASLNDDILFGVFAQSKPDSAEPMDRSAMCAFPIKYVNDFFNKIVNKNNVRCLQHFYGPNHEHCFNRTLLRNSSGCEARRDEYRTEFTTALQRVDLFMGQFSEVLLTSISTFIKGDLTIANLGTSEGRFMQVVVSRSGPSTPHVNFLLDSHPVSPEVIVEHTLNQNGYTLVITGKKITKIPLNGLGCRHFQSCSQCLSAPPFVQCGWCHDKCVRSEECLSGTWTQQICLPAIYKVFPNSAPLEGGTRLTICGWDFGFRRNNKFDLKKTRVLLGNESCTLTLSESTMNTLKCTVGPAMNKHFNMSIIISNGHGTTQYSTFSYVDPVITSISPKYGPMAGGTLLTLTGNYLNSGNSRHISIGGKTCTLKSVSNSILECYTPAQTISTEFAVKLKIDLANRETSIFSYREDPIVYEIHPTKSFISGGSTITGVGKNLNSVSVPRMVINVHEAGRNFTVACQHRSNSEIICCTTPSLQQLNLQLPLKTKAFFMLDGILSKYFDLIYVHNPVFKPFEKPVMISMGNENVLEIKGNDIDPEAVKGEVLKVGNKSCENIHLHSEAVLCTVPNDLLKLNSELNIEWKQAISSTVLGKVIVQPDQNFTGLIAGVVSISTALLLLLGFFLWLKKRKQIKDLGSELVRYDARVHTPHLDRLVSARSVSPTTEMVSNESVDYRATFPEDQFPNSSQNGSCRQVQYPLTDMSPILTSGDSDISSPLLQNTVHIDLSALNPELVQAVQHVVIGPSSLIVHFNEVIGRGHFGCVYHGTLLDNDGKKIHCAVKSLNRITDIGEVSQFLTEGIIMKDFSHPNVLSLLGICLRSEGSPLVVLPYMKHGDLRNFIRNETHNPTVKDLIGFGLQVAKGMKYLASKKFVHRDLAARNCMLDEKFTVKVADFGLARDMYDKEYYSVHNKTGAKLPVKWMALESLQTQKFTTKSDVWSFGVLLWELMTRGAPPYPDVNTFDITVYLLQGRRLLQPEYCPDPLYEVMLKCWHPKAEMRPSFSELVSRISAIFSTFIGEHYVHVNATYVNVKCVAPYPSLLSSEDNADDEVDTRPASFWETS
Binder,"BrdU assay on NCI-H441 cells (agonism); safety improved by, at 10 ug/ml","degree of degradation of c-Met (total c-Met ELISA, MKN45 cells, 5 ug/ml, 24 h), increase compared to huAbF46"
B1,21%,~28%
B4,25%,~37%
B2,13%,~28%
B3,28%,~28%
